Test results as given in patent CN111778218A (SHANDONG KUANHEZHENG BIOTECHNOLOGY MEDICINE CO LTD, dated 2020).

Target: T1, 牛血清白蛋白BSA (牛 (bovine), UniProt P02769 25-607)
T1 construct: also called 牛血清蛋白
Assay: phage ELISA, BSA coated at 1 μg/mL

T1 sequence (P02769 25-607 limits assumed): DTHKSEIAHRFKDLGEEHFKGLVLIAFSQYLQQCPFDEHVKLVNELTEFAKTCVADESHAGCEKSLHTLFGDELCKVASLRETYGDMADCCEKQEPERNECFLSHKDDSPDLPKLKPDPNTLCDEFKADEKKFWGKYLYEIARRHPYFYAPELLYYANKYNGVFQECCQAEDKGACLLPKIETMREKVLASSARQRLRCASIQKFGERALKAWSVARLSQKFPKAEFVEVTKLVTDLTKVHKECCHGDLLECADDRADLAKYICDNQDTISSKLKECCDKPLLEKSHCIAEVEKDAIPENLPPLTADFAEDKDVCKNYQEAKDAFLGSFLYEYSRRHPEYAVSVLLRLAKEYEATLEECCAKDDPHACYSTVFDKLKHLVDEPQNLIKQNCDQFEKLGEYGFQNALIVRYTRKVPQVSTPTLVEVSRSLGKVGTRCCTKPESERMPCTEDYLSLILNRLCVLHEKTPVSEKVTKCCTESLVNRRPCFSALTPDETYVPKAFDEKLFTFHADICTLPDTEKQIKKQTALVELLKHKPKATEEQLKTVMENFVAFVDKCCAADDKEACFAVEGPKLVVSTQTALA

B1: 噬菌体展示的单克隆抗体A9 (antibody, V domains shown)
VH: EVQLLESGGGLVQPGGSLRLSCAASGFTFSSYAMSWVRQAPGKGLEWVSGITNSGSSTSYADSVKGRFTISRDNSKNTLYLQMNSLRAEDTAVYYCAKGTDAFDYWGQGTLVTVSS
VL: DIQMTQSPSSLSASVGDRVTITCRASQSISSYLNWYQQKPGKAPKLLIYAASTLQSGVPSRFSGSGSGTDFTLTISSLQPEDFATYYCQQSNCSPATFGQGTKVEIKR
notes: also called A9抗体
- binding result: no binding

B2: 噬菌体展示的单克隆抗体E11 (antibody, V domains shown)
VH: EVQLLESGGGLVQPGGSLRLSCAASGFTFSSYAMSWVRQAPGKGLEWVSSIDSSGYYTSYADSVKGRFTISRDNSKNTLYLQMNSLRAEDTAVYYCAKNSDSFDYWGQGTLVTVSS
VL: DIQMTQSPSSLSASVGDRVTITCRASQSISSYLNWYQQKPGKAPKLLIYSASYLQSGVPSRFSGSGSGTDFTLTISSLQPEDFATYYCQQYDDGPNTFGQGTKVEIKR
notes: also called E11抗体
- binding result: no binding

B3: 噬菌体展示的单克隆抗体F5 (antibody, V domains shown)
VH: EVQLLESGGGLVQPGGSLRLSCAASGFTFSSYAMSWVRQAPGKGLEWVSTIDSAGNSTTYADSVKGRFTISRDNSKNTLYLQMNSLRAEDTAVYYCAKNDSSFDYWGQGTLVTVSS
VL: DIQMTQSPSSLSASVGDRVTITCRASQSISSYLNWYQQKPGKAPKLLIYSASWLQSGVPSRFSGSGSGTDFTLTISSLQPEDFATYYCQQYSDGPDTFGQGTKVEIKR
notes: also called F5抗体; 噬菌体展示F5抗体
- binding result: no binding

B4: 噬菌体展示的单克隆抗体F10 (antibody, V domains shown)
VH: EVQLLESGGGLVQPGGSLRLSCAASGFTFSSYAMSWVRQAPGKGLEWVSGIDSAGYYTTYADSVKGRFTISRDNSKNTLYLQMNSLRAEDTAVYYCAKDSDTFDYWGQGTLVTVSS
VL: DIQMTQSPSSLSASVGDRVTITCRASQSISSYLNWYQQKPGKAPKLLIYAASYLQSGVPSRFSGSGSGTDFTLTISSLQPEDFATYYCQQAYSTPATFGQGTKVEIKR
notes: also called F10抗体
- binding result: no binding

B5: 噬菌体展示的单克隆抗体H9 (antibody, V domains shown)
VH: EVQLLESGGGLVQPGGSLRLSCAASGFTFSSYAMSWVRQAPGKGLEWVSDITDNGASTGYADSVKGRFTISRDNSKNTLYLQMNSLRAEDTAVYYCAKSTNTFDYWGQGTLVTVSS
VL: DIQMTQSPSSLSASVGDRVTITCRASQSISSYINWYQQKPGKAPKLLIYDASSLQSGVPSRFSGSGSGTDFTLTISSLQPEDFATYYCQQNSNSPSTFGQGTKVEIKR
notes: also called H9抗体
- binding result: no binding
